Here are results for two proteins from paper PMC8891189, “Hydroxycinnamoyltransferase and CYP98 in phenolic metabolism in the rosmarinic acid-producing hornwort Anthoceros agrestis” (Planta, 2022).

Substrate in series [1]: O=C(/C=C/c1ccc(O)cc1)Nc1c(O)cccc1C(=O)O
The series is described as follows: HPLC product assay, Michaelis-Menten fit. In kind it is biochemical, Anthoceros agrestis. As to conditions: co-substrate NADPH, with Coleus blumei CPR, pH 7.0, 30 °C, crude extract.

Substrate in series [2]: O=C(/C=C/c1ccc(O)cc1)Nc1ccccc1C(=O)O
Description: HPLC product assay, Michaelis-Menten fit. In kind it is biochemical, Anthoceros agrestis. As to conditions: co-substrate NADPH, with Coleus blumei CPR, pH 7.0, 30 °C, crude extract.

Substrate in series [3]: O=C(/C=C/c1ccc(O)cc1)NCCc1ccc(O)cc1
Description: HPLC product assay, Michaelis-Menten fit. In kind it is biochemical, Anthoceros agrestis. The following applies: co-substrate NADPH, with Coleus blumei CPR, pH 7.0, 30 °C, crude extract.

Substrate in series [4]: O=C(O)c1cccc(O)c1O
Description: HPLC product assay, Michaelis-Menten fit. In kind it is biochemical, Anthoceros agrestis. The following applies: co-substrate p-coumaroyl-CoA, 30 °C, crude extract, ester formed.

Substrate in series [5]: CC(C)(COP(=O)(O)OP(=O)(O)OC[C@H]1O[C@@H](n2cnc3c(N)ncnc32)[C@H](O)[C@@H]1OP(=O)(O)O)[C@@H](O)C(=O)NCCC(=O)NCCSC(=O)/C=C/c1ccc(O)cc1
Description: HPLC product assay, Michaelis-Menten fit. The series is classed as biochemical, Anthoceros agrestis. The following applies: co-substrate shikimic acid, pH 7.0, 30 °C, crude extract, pH 7.0.

Substrate in series [6]: CC(C)(COP(=O)(O)OP(=O)(O)OC[C@H]1O[C@@H](n2cnc3c(N)ncnc32)[C@H](O)[C@@H]1OP(=O)(O)O)[C@@H](O)C(=O)NCCC(=O)NCCSC(=O)/C=C/c1ccc(O)c(O)c1
The series is described as follows: HPLC product assay, Michaelis-Menten fit. In kind it is biochemical, Anthoceros agrestis. As to conditions: co-substrate shikimic acid, pH 7.0, 30 °C, crude extract, pH 7.0.

Substrate in series [7]: Nc1c(O)cccc1C(=O)O
The series is described as follows: HPLC product assay, Michaelis-Menten fit. The following applies: co-substrate p-coumaroyl-CoA, pH 9.0, 30 °C, crude extract, amide formed, pH 9.0. In kind it is biochemical, Anthoceros agrestis.

Substrate in series [8]: O=C(O)C1=C[C@@H](O)[C@@H](O)[C@H](O)C1
Description: cells, lysate or membranes. The following applies: co-substrate p-coumaroyl-CoA, pH 7.0, 30 °C, crude extract.

B1: AaCYP98 (CYP98A147; coAaCYP98 + CbCPR) (Anthoceros agrestis) (protein)
chain: MAELVVRAVLALIAVAVAAGFLFYRARWSRYKLPPGPKPRLFVGNLLDVTAVRFKCFEQWAKVYGPVMSVWMGATLNVVVSSAEGAKEVLKDKDQSLAARARSRAAAKFSRDGQDLIWADYGPHYVKVRKVCNVELFTPKRLEALRPIRQDEVSAMVHKIHRDAPKGPVNPKKYLSAMAFNNITRLAFGKRFVDDEGKIDSQGVEFKEVIGQGMKLGASLKISEHIPSIRWMFPLQNEEFAKHGARRDTLTRTIMKEHAALRETLGPQSHFVDALLGLQKQYDLSETTIIGLLWDMVTAGMDTVAITVEWALAELIRNPEVQRKAQEELDAVVGDETVLTEAHFSKLPYLTALTKESLRLHPPTPLMLPHKCTEDVKIQGYDIPKGTVVHCNIYVIARDPAVWKEPLAFRPERFLEQDVDIKGHDFRLLPFGAGRRVCPGAQLGLNMVQLMIGRLLHQFSWSPPEGVRAEDISLEERSGIVTYMAKSLEAVATPRLPQALYARNV
notes: with NADPH--cytochrome P450 reductase (Coleus blumei)
On to B1, for which the Km is on record as 9.3 ± 0.7 µM in series [1], 6.4 ± 0.8 µM in series [2] and 36.3 ± 3.6 µM in series [3].

B2: AaHCT6 (Anthoceros agrestis) (protein)
chain: MKVSIKKETMVPPAEETPQVALWASNVDLIIPQIHTSSVYFYRPSGSPDFFSGDVLRDALAKALVPFYPMAGRLARDQDGRIQINCNAAGVLLVEAEADVSIDDLGGFAPHPVLQQLVPTVVYTKDITAFPLLVLQVTRFKCGGASLGVGMEHHIADGTSGIHFINTWSDVARGEGVKVLPFVDRTLLRARSPPTPQFEHVEYQTPFTLQPRFRPEEGSEKVETVVESFTFSREQLGKLKAMVADPGANLAYSSYVALSAHIWRCATRARGLSGDQPSKLFVATDGRARLRPPLPRGYFGNVIFTCTPVAEAEELVAKPLIRTAARIQEAVLKMGDEYLRSALDYLELLPDMSVCIRGAAHFGNPNLCITSWSGLPVYDCDFGWGRAIHMGPCQIGFEGLCFVLGSATKDGSLGLALRLRADHMADFRKLVNDI
For B2, the Km turned out to be 1025.9 ± 59.7 µM in series [4]; 14.4 ± 1.4 µM in series [5]; 19.2 ± 16.2 µM in series [6]; 153.1 ± 33.8 µM in series [7]; 24.6 ± 10.4 µM in series [8].

For orientation: Km means the substrate concentration at which the rate is half of its maximum.
